Results as given in the Human Domainome abundance scans (Beltran et al. 2025).
± gives the uncertainty stated by the source.

B1: Kinesin-like protein KIF16B, residues 1213 to 1273; numbered along this chain, Q96L93 (parent)
chain: ETWTVFRRYSRFREMHKTLKLKYAELAALEFPPKKLFGNKDERVIAERRSHLEKYLRDFFS

Variants of: B1
Assay: abundance fitness (aPCA) (normalised: wild type 0, dead -1); higher = more abundant; growth selection in yeast, the domain comes from the species named
Details: Homo sapiens

| Variant | abundance fitness |
| --- | --- |
| ETWTVFRRYSRFREMHKTLKLKYAELAALEFPPKKLFGNKDERVIAERRSHLEKYLRGFFS | 0.03 ± 0.053 |
| ETWTVFRRYSRFREMHKTLKLKYAELAALEFPPKKLFGNKDERVIAERRSHLEKYLRWFFS | 0.204 ± 0.054 |
| ETWTVFRRYSRFREMHKTLKLKYAELAALEFPPKKLFGNKDERVIAERRSHLEKYLRQFFS | -0.153 ± 0.13 |
| ETWTVFRRYSRFREMHKTLKLKYAELAALEFPPKKLFGNKDERVIAERRSHLEKYLRKFFS | 0.241 ± 0.081 |
| ETWTVFRRYSRFREMHKTLKLKYAELAALEFPPKKLFGNKDERVIAERRSHLEKYLRAFFS | 0.087 ± 0.083 |
| ETWTVFRRYSRFREMHKTLKLKYAELAALEFPPKKLFGNKDERVIAERRSHLEKYLRRFFS | 0.161 ± 0.049 |
| ETWTVFRRYSRFREMHKTLKLKYAELAALEFPPKKLFGNKDERVIAERRSHLEKYLRHFFS | 0.09 ± 0.11 |
| ETWTVFRRYSRFREMHKTLKLKYAELAALEFPPKKLFGNKDERVIAERRSHLEKYLRIFFS | 0.012 ± 0.19 |
| ETWTVFRRYSRFREMHKTLKLKYAELAALEFPPKKLFGNKDERVIAERRSHLEKYLRSFFS | -0.182 ± 0.086 |
| ETWTVFRRYSRFREMHKTLKLKYAELAALEFPPKKLFGNKDERVIAERRSHLEKYLRPFFS | 0.09 ± 0.084 |
| ETWTVFRRYSRFREMHKTLKLKYAELAALEFPPKKLFGNKDERVIAERRSHLEKYLRMFFS | 0.056 ± 0.069 |
| ETWTVFRRYSRFREMHKTLKLKYAELAALEFPPKKLFGNKDERVIAERRSHLEKYLRFFFS | 0.049 ± 0.25 |
| ETWTVFRRYSRFREMHKTLKLKYAELAALEFPPKKLFGNKDERVIAERRSHLEKYLRCFFS | -0.024 ± 0.17 |
| ETWTVFRRYSRFREMHKTLKLKYAELAALEFPPKKLFGNKDERVIAERRSHLEKYLRLFFS | -0.075 ± 0.08 |
| ETWTVFRRYSRFREMHKTLKLKYAELAALEFPPKKLFGNKDERVIAERRSHLEKYLRNFFS | -0.149 ± 0.21 |
| ETWTVFRRYSRFREMHKTLKLKYAELAALEFPPKKLFGNKDERVIAERRSHLEKYLRVFFS | -0.048 ± 0.061 |
| ETWTVFRRYSRFREMHKTLKLKYAELAALEFPPKKLFGNKDERVIAERRSHLEKYVRDFFS | -0.019 ± 0.053 |
| ETWTVFRRYSRFREMHKTLKLKYAELAALEFPPKKLFGNKDERVIAERRSHLEKYYRDFFS | -0.263 ± 0.19 |
| ETWTVFRRYSRFREMHKTLKLKYAELAALEFPPKKLFGNKDERVIAERRSHLEKYLRDFSS | -0.585 ± 0.1 |
| ETWTVFRRYSRFREMHKTLKLKYAELAALEFPPKKLFGNKDERVIAERRSHLEKYLRDFLS | -0.087 ± 0.064 |
| ETWTVFRRYSRFREMHKTLKLKYAELAALEFPPKKLFGNKDERVIAERRSHLEKYLRDFWS | 0.153 ± 0.073 |
| ETWTVFRRYSRFREMHKTLKLKYAELAALEFPPKKLFGNKDERVIAERRSHLEKYLRDFPS | -0.759 ± 0.14 |
| ETWTVFRRYSRFREMHKTLKLKYAELAALEFPPKKLFGNKDERVIAERRSHLEKYLRDFVS | -0.165 ± 0.086 |
| ETWTVFRRYSRFREMHKTLKLKYAELAALEFPPKKLFGNKDERVIAERRSHLEKYLRDFQS | -1.01 ± 0.33 |
| ETWTVFRRYSRFREMHKTLKLKYAELAALEFPPKKLFGNKDERVIAERRSHLEKYLRDFAS | -0.729 ± 0.11 |
| ETWTVFRRYSRFREMHKTLKLKYAELAALEFPPKKLFGNKDERVIAERRSHLEKYLRDFIS | -0.143 ± 0.28 |

| Variant | abundance fitness |
| --- | --- |
| ETWTVFRRYSRFREMHKTLKLKYAELAALEFPPKKLFGNKDERVIAERRSHLEKYLRDFRS | -0.565 ± 0.097 |
| ETWTVFRRYSRFREMHKTLKLKYAELAALEFPPKKLFGNKDERVIAERRSHLEKYLRDFMS | -0.256 ± 0.097 |
| ETWTVFRRYSRFREMHKTLKLKYAELAALEFPPKKLFGNKDERVIAERRSHLEKYLRDFES | -1 ± 0.23 |
| ETWTVFRRYSRFREMHKTLKLKYAELAALEFPPKKLFGNKDERVIAERRSHLEKYLRDFGS | -0.647 ± 0.088 |
| ETWTVFRRYSRFREMHKTLKLKYAELAALEFPPKKLFGNKDERVIAERRSHLEKYLRDFCS | -0.263 ± 0.15 |
| ETWTVFRRYSRFREMHKTLKLKYAELAALEFPPKKLFGNKDERVIAERRSHLEKYLIDFFS | -0.388 ± 0.095 |
| ETWTVFRRYSRFREMHKTLKLKYAELAALEFPPKKLFGNKDERVIAERRSHLEKYLHDFFS | -0.6 ± 0.25 |
| ETWTVFRRYSRFREMHKTLKLKYAELAALEFPPKKLFGNKDERVIAERRSHLEKYLDDFFS | -0.712 ± 0.16 |
| ETWTVFRRYSRFREMHKTLKLKYAELAALEFPPKKLFGNKDERVIAERRSHLEKYLLDFFS | -0.368 ± 0.059 |
| ETWTVFRRYSRFREMHKTLKLKYAELAALEFPPKKLFGNKDERVIAERRSHLEKYLADFFS | -0.444 ± 0.085 |
| ETWTVFRRYSRFREMHKTLKLKYAELAALEFPPKKLFGNKDERVIAERRSHLEKYLPDFFS | -0.087 ± 0.094 |
| ETWTVFRRYSRFREMHKTLKLKYAELAALEFPPKKLFGNKDERVIAERRSHLEKYLSDFFS | -0.427 ± 0.063 |
| ETWTVFRRYSRFREMHKTLKLKYAELAALEFPPKKLFGNKDERVIAERRSHLEKYLTDFFS | -0.309 ± 0.06 |
| ETWTVFRRYSRFREMHKTLKLKYAELAALEFPPKKLFGNKDERVIAERRSHLEKYLVDFFS | -0.412 ± 0.093 |
| ETWTVFRRYSRFREMHKTLKLKYAELAALEFPPKKLFGNKDERVIAERRSHLEKYLNDFFS | -0.395 ± 0.11 |
| ETWTVFRRYSRFREMHKTLKLKYAELAALEFPPKKLFGNKDERVIAERRSHLEKYLEDFFS | -0.636 ± 0.11 |
| ETWTVFRRYSRFREMHKTLKLKYAELAALEFPPKKLFGNKDERVIAERRSHLEKYLQDFFS | -0.776 ± 0.14 |
| ETWTVFRRYSRFREMHKTLKLKYAELAALEFPPKKLFGNKDERVIAERRSHLEKYLFDFFS | -0.33 ± 0.1 |
| ETWTVFRRYSRFREMHKTLKLKYAELAALEFPPKKLFGNKDERVIAERRSHLEKYLMDFFS | -0.468 ± 0.12 |
| ETWTVFRRYSRFREMHKTLKLKYAELAALEFPPKKLFGNKDERVIAERRSHLEKYLWDFFS | -0.447 ± 0.11 |
| ETWTVFRRYSRFREMHKTLKLKYAELAALEFPPKKLFGNKDERVIAERRSHLEKYLYDFFS | -0.437 ± 0.18 |
| ETWTVFRRYSRFREMHKTLKLKYAELAALEFPPKKLFGNKDERVIAERRSHLEKYLCDFFS | -0.239 ± 0.07 |
| ETWTVFRRYSRFREMHKTLKLKYAELAALEFPPKKLFGNKDERVIAERRSHLEKYLKDFFS | -0.094 ± 0.11 |
| ETWTVFRRYSRFREMHKTLKLKYAELAALEFPPKKLFGNKDERVIAERRSHLEKYLRDKFS | -0.204 ± 0.12 |
| ETWTVFRRYSRFREMHKTLKLKYAELAALEFPPKKLFGNKDERVIAERRSHLEKYLRDVFS | -0.121 ± 0.06 |
| ETWTVFRRYSRFREMHKTLKLKYAELAALEFPPKKLFGNKDERVIAERRSHLEKYLRDLFS | -0.157 ± 0.068 |

| Variant | abundance fitness |
| --- | --- |
| ETWTVFRRYSRFREMHKTLKLKYAELAALEFPPKKLFGNKDERVIAERRSHLEKYLRDWFS | -0.005 ± 0.075 |
| ETWTVFRRYSRFREMHKTLKLKYAELAALEFPPKKLFGNKDERVIAERRSHLEKYLRDAFS | -0.607 ± 0.11 |
| ETWTVFRRYSRFREMHKTLKLKYAELAALEFPPKKLFGNKDERVIAERRSHLEKYLRDTFS | -0.489 ± 0.11 |
| ETWTVFRRYSRFREMHKTLKLKYAELAALEFPPKKLFGNKDERVIAERRSHLEKYLRDIFS | -0.031 ± 0.41 |
| ETWTVFRRYSRFREMHKTLKLKYAELAALEFPPKKLFGNKDERVIAERRSHLEKYLRDGFS | -0.573 ± 0.076 |
| ETWTVFRRYSRFREMHKTLKLKYAELAALEFPPKKLFGNKDERVIAERRSHLEKYLRDCFS | -0.429 ± 0.14 |
| ETWTVFRRYSRFREMHKTLKLKYAELAALEFPPKKLFGNKDERVIAERRSHLEKYLRDRFS | -0.461 ± 0.07 |
| ETWTVFRRYSRFREMHKTLKLKYAELAALEFPPKKLFGNKDERVIAERRSHLEKYLRDSFS | -0.994 ± 0.18 |
| ETWTVFRRYSRFREMHKTLKLKYAELAALEFPPKKLFGNKDERVIAERRSHLEKYLRDQFS | -0.51 ± 0.18 |
| ETWTVFRRYSRFREMHKTLKLKYAELAALEFPPKKLFGNKDERVIAERRSHLEKYLRDEFS | -0.627 ± 0.11 |
| ETWTVFRRYSRFREMHKTLKLKYAELAALEFPPKKLFGNKDERVIAERRSHLEKYLRDMFS | -0.277 ± 0.08 |
| ETWTVFRRYSRFREMHKTLKLKYAELAALEFPPKKLFGNKDERVIAERRSHLEKYLRDFFN | -0.23 ± 0.11 |
| ETWTVFRRYSRFREMHKTLKLKYAELAALEFPPKKLFGNKDERVIAERRSHLEKYLRDFFK | -0.025 ± 0.087 |
| ETWTVFRRYSRFREMHKTLKLKYAELAALEFPPKKLFGNKDERVIAERRSHLEKYLRDFFT | -0.296 ± 0.16 |
| ETWTVFRRYSRFREMHKTLKLKYAELAALEFPPKKLFGNKDERVIAERRSHLEKYLRDFFA | -0.263 ± 0.23 |
| ETWTVFRRYSRFREMHKTLKLKYAELAALEFPPKKLFGNKDERVIAERRSHLEKYLRDFFY | -0.81 ± 0.4 |
| ETWTVFRRYSRFREMHKTLKLKYAELAALEFPPKKLFGNKDERVIAERRSHLEKYLRDFFC | -0.412 ± 0.32 |
| ETWTVFRRYSRFREMHKTLKLKYAELAALEFPPKKLFGNKDERVIAERRSHLEKYLRDFFR | 0.143 ± 0.14 |
| ETWTVFRRYSRFREMHKTLKLKYAELAALEFPPKKLFGNKDERVIAERRSHLEKYLRDFFQ | 0.11 ± 0.17 |
| ETWTVFRRYSRFREMHKTLKLKYAELAALEFPPKKLFGNKDERVIAERRSHLEKYLRDFFM | -0.073 ± 0.19 |
| ETWTVFRRYSRFREMHKTLKLKYAELAALEFPPKKLFGNKDERVIAERRSHLEKYLRDFFL | -0.038 ± 0.36 |
| ETWTVFRRYSRFREMHKTLKLKYAELAALEFPPKKLFGNKDERVIAERRSHLEKYLRDFFV | -0.029 ± 0.099 |
| ETWTVFRRYSRFREMHKTLKLKYAELAALEFPPKKLFGNKDERVIAERRSHLEKYLRDFFP | -0.337 ± 0.1 |
| ETWTVFRRYSRFREMHKTLKLKYAELAALEFPPKKLFGNKDERVIAERRSHLEKYLRDFFG | -0.09 ± 0.18 |
